Experimental data taken from PMC6342527.

Tests used:
Experiment in all cases: cryo-EM structure; single-particle cryo-EM of SEC-purified channel in 20 mM Tris pH 7.5, 50 mM NaCl, 1 mM DDM, 0.1 mM CHS; 1 uM CaCl2 added (Ca2+-bound); homopentamer
[1] = molecular target: chicken BEST1, residues 1-345, W287F mutant (BEST1_(345) W287F) (chicken)
[2] = molecular target: chicken BEST1, residues 1-405 (BEST1_(405)) (chicken)
[3] = molecular target: chicken BEST1, residues 1-345 (BEST1_(345)) (chicken)

“chicken BEST1, residues 1-345, W287F mutant (BEST1_(345) W287F) (domain or fragment)” was tested, and the stoichiometry N [1] was 5.
Work on “chicken BEST1, residues 1-405 (BEST1_(405)) (domain or fragment)” yielded a stoichiometry N [2] of 5.
Substance “chicken BEST1, residues 1-345 (BEST1_(345)) (domain or fragment)” has a stoichiometry N [3] of 5.
